The target in this assay is T1, bovine thyroglobulin (bovine, UniProt P01267 20-2769, carries alpha-gal (galactose-alpha-1,3-galactose) glycans).
T1 construct: Antigen coated on ELISA plates, blotted, or on the ImmunoCAP o215 solid phase; It is recognised through its alpha-gal glycans; also called BTG; Thyroglobulin, bovine
Nature of the assay: direct ELISA, bovine thyroglobulin coated at 25 ug/ml, purified IgE dilution series.

Among the data in US20240026035A1 (published 2024) are EC50 values, retold here.

T1 sequence (P01267 20-2769 limits assumed): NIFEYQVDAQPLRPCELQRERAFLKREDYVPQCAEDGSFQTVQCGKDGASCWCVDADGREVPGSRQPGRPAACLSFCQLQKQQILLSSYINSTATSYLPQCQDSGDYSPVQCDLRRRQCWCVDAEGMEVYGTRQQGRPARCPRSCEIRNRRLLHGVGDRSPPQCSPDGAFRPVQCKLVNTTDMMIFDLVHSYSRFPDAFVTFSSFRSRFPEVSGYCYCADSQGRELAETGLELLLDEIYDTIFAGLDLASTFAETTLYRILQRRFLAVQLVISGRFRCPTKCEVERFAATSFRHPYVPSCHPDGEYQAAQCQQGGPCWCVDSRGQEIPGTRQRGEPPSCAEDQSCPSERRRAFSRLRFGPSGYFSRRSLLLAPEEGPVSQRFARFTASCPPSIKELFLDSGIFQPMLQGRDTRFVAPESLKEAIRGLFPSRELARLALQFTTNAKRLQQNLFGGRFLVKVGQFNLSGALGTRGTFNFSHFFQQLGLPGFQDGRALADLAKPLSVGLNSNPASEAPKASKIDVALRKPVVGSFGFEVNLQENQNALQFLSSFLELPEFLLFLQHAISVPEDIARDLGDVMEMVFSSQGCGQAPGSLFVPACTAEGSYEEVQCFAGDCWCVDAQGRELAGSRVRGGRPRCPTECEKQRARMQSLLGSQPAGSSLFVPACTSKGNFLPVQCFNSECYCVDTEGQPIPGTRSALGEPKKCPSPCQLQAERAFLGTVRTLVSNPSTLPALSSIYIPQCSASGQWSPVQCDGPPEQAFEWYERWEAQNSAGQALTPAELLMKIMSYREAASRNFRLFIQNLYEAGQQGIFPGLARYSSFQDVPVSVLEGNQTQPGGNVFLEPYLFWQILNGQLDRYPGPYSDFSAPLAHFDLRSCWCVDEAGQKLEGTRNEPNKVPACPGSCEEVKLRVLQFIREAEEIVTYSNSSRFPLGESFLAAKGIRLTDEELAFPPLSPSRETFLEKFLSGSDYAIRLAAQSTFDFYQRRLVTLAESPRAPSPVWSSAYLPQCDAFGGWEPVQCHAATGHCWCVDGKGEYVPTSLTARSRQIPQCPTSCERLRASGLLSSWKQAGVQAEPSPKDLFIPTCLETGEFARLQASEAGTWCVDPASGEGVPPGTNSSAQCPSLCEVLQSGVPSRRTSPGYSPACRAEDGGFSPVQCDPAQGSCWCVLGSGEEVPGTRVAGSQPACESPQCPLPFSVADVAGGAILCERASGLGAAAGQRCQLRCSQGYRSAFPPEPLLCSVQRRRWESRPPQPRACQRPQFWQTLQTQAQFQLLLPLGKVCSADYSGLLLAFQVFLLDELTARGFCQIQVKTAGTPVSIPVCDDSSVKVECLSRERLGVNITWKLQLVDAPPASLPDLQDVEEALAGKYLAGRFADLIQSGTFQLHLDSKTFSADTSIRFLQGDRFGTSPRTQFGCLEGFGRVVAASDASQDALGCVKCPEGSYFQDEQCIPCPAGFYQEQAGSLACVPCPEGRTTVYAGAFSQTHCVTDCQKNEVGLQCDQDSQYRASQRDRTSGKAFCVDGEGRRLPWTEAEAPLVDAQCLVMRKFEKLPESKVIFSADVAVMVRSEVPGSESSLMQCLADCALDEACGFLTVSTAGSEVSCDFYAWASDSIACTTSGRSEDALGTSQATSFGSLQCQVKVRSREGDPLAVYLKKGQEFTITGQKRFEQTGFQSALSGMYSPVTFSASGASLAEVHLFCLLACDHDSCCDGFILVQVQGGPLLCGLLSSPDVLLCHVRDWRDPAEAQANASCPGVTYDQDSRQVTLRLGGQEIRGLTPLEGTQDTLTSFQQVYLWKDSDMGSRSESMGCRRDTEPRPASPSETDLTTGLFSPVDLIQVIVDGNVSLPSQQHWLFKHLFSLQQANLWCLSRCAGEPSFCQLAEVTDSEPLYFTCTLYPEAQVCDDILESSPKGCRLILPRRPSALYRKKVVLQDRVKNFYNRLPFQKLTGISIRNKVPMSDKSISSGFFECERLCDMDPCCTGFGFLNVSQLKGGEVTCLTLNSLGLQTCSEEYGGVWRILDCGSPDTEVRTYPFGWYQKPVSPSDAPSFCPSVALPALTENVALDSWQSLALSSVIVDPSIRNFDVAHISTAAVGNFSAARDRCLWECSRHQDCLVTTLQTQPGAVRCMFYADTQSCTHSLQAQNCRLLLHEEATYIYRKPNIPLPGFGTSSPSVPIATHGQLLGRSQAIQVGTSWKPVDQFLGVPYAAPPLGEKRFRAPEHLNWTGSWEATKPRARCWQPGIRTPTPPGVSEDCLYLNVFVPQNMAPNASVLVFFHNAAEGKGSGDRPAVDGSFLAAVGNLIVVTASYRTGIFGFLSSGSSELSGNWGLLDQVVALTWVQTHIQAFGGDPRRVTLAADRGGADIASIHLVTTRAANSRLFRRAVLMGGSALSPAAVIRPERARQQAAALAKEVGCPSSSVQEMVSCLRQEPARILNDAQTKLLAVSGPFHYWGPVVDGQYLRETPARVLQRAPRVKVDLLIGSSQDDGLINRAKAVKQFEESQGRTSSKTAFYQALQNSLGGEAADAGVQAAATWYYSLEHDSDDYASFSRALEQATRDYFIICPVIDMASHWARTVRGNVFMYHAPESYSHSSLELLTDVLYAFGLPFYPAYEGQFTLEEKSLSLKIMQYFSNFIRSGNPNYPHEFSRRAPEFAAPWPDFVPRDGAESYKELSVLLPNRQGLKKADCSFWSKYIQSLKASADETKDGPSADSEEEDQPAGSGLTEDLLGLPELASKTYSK
From the text: Relative fluorescence intensity or optical density was determination on a Molecular Devices plate reader.
By performing EC₅₀ assays using purified IgE mAb, rough comparisons between mAb binding can be made.

B1: human alpha-gal-specific IgE mAb 16D9 (antibody, V domains shown)
VH: QVQLQQWGAGLLKPSETLSLTCAVYGGTFSDYFYTWIRQPPGKGLEWIGEVSHTGRTSYIPSLKSRVTMSVDTSKNQFSLNLSSVTDADTAVYYCGRGRGYTWNDWGQGTLVTVSS
VL: QSALTQPASVSGSPGQSITISCTGTITDVGGYDYVSWYQQHPGKAPKLIIFLVNNRPSGVSDRFSGSKSGNTASLTISGLRVEDEADYYCMSYTCSNPYTCSSLYVFGTGTKVTVL
notes: the IgE constant regions are not
Molecule B1 yielded an EC50 of 0.016 µg/mL.

B2: human alpha-gal-specific IgE mAb 10H8 (antibody, V domains shown)
VH: QVQLVESGGGVVQPGRSLRLSCAVSGFTFRSFGMHWVRQAPGKGLEWVAVIWHDGSNKHYADSVKGRFTISRDDSKNTLFLQMNSLRAEDTAVYYCARESEEQGNMDVWGQGTTVTVSS
VL: DVVMTQSPLSLPATLGQPASISCRSSHSLVYSNGNTYLNWFQQRPGQSPRRLFFQVSNRDSGVPDRFSGSGSVTNFTLKISRVEAEDVGVYYCMEGSHWPPYTFGQGTRLDIR
notes: as for B1
As to B2, it took 0.072 µg/mL to reach a half-maximal effect (EC50).
